The values below come from the supplement of paper PMC12042874.

± gives the uncertainty stated by the source.

The first data set can be described thus: amyloid nucleation score (Sup35N fusion, yeast selection) (log enrichment); library NNK1; higher = more nucleation; inactive = no reads after selection. A digest of the protocol:
(§1)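 Peptides of 20 random codons fused to Sup35N were expressed in psi-negative yeast, induced 24 hours with 100 μM copper sulfate, then grown 7 days at 30°C on medium lacking adenine and uracil. Input and output plasmid inserts were Illumina-sequenced. Nucleation score is the DiMSum log enrichment of output over input reads, centred on the mode score of non-aggregating sequences, excluding sequences with under 100 input reads. Random libraries had three technical output replicates.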
The substance AACGWHRLICNKFSQFTRGP showed an amyloid nucleation score of -0.021 ± 0.75.

On to AAFDRNSEGNAPMPVMCPCI, for which the amyloid nucleation score was found to be 0.34 ± 0.75.

AAKRSETAP: the amyloid nucleation score is -0.308 ± 0.43.

With AAVCRSILVF, the amyloid nucleation score was determined as 0.674 ± 0.88.

With ACDRMGGVSGPDSAAVWPYI, the amyloid nucleation score was -1.91 ± 2.7.

ACGRLFDYVAFHRLLDQTHW had an amyloid nucleation score of -0.617 ± 0.65.

Take ACLGVTRGYSGPSTTKSFLR: the amyloid nucleation score is -0.238 ± 0.46.

Consider ACLISMMLVLCYI, for which the amyloid nucleation score amounted to 1.67 ± 0.53.

In turn, ACYGLIDQLFQLANPYRTAM displayed an amyloid nucleation score of 0.412 ± 0.32.

The substance ACYNGHTSRWLR yielded an amyloid nucleation score of 1.09 ± 0.85.

Consider ADAGGSQVWAYQAQIICPKW, for which the amyloid nucleation score was -0.63 ± 1.3.

With ADGWFQFWRGKYFGGRFQFT, the amyloid nucleation score is -0.166 ± 0.61.

Substance ADRKSFLQSCGLCE displayed an amyloid nucleation score of -0.661 ± 0.32.

For ADWTSSLNLGEYYMFKFSPE, the amyloid nucleation score worked out at 1.02 ± 0.38.

AECLDPMNAVTVCRGSWL: the amyloid nucleation score worked out at 0.101 ± 0.35.

Substance AESLWQFTWQVTKPHEEGSE came in with an amyloid nucleation score of 4.35 ± 0.068.

As to AFAVSSYWVRGIHRESYGSV, the amyloid nucleation score amounted to 0.591 ± 0.69.

Take AFGMIVLGRSTNGGYCTDGN: the amyloid nucleation score came to 2.83 ± 0.16.

Turning to AFLQLDS, the amyloid nucleation score came to 0.665 ± 0.36.

AFMSRVPFSHCIKSGGLQGT came in with an amyloid nucleation score of 0.19 ± 0.49.

In turn, AFNGTSAGMCKWGACTEWCV came in with an amyloid nucleation score of -0.382 ± 0.28.

On to AFNKAVMSDTQL, for which the amyloid nucleation score was -0.7 ± 0.6.

Consider AGCHGSDSHPFRQPSPLLLF, for which the amyloid nucleation score was 0.462 ± 1.2.

With AGFVSVVVF, the amyloid nucleation score worked out at 0.005 ± 0.38.

In turn, AGKCGIQWACEM showed an amyloid nucleation score of 0.194 ± 0.69.

Substance AGLITSDDMAYWIGILFCNL came in with an amyloid nucleation score of 2.57 ± 0.14.

Substance AGQVYRFAVSVRSSKLIVAR returned an amyloid nucleation score of 0.966 ± 0.45.

As for AGSGMLSKLVLLSRKSMVIT, the amyloid nucleation score is 1.92 ± 0.21.

As for AGVCYWTLDILPY, the amyloid nucleation score was determined as 0.789 ± 0.9.

The substance AHCLECGMNVNGTIF came in with an amyloid nucleation score of -0.81 ± 1.6.

Substance AHSAYL gave an amyloid nucleation score of 0.43 ± 0.4.

Take AIRFDLVTFAAIEGIIYKGR: the amyloid nucleation score turned out to be 0.136 ± 1.

Take AISAYELSRIRVQS: the amyloid nucleation score turned out to be 0.487 ± 0.55.

As to AKGCNMWI, the amyloid nucleation score worked out at 2.3 ± 0.32.

With AKGYTEMVKYHRVSTTMVFM, the amyloid nucleation score result was “inactive”.

In turn, AKHVLGNHAIRNGSKL returned an amyloid nucleation score of 0.258 ± 0.3.

Substance AKIWVWSWWY registered an amyloid nucleation score of 0.039 ± 0.47.

As to AKLWQY, the amyloid nucleation score is -0.185 ± 1.1.

As to AKPMNKTEYFSAYLQLHMGI, the amyloid nucleation score turned out to be 3.1 ± 0.12.

For ALCFGR, the amyloid nucleation score result was “inactive”.

The substance ALHCQPVGH had an amyloid nucleation score of -0.006 ± 0.32.

For the substance ALIFLGYMLRRRYWIYRLLS, the amyloid nucleation score was 0.07 ± 0.58.

The substance ALIYPILILYGV gave an amyloid nucleation score of 1.52 ± 0.85.

The substance ALMDKDLCLNMSGQKSLWFR displayed an amyloid nucleation score of 0.073 ± 0.48.

Turning to ALMDTCSVSSARGHDPCNRP, the amyloid nucleation score was -0.413 ± 0.78.

The substance ALNGSNRIIACTIIWCVVW came in with an amyloid nucleation score of 2.51 ± 0.18.

ALRNCQNMRPYKTPVRPTVA gave an amyloid nucleation score of 1.34 ± 0.71.

Take ALSEFIFGLWLSFLIPRYMW: the amyloid nucleation score came to 1.21 ± 0.56.

With ALTVTCFLVPGSYIIHVGMK, the amyloid nucleation score was -0.332 ± 0.37.

Regarding ALYSQGSSTV, the amyloid nucleation score is -1.15 ± 1.1.

Substance AMPADIILVVGLSCDDRREG showed an amyloid nucleation score of 0.724 ± 0.52.

For the substance AMQYYIHQLVVDLSGLM, the amyloid nucleation score was 6.57 ± 0.077.

Substance AMYHLGQSSLLYSRPFNSTK showed an amyloid nucleation score of -0.595 ± 1.6.

ANADDMLRFRGDF yielded an amyloid nucleation score of 0.243 ± 0.44.

With ANAELVYNRLFRSTNPLGCV, the amyloid nucleation score result was “inactive”.

For ANLCSCSTTMA, the amyloid nucleation score came to 0.236 ± 0.39.

The substance ANLDQCYIMEWGSTESSKL displayed an amyloid nucleation score of 0.302 ± 1.

In turn, ANLVWDYFQVSTSPMCPLVQ showed an amyloid nucleation score of -2.07 ± 2.4.

In turn, ANNNEYRFWTTSYW had an amyloid nucleation score of 0.041 ± 1.4.

On to ANRNDCTQFTDSK, for which the amyloid nucleation score was -0.41 ± 0.27.

As for APDRNDHDKLCCLCDNWSAL, the amyloid nucleation score came to 0.056 ± 1.4.

Substance APEGLPMDAPGLGWVNRVII gave an amyloid nucleation score of -0.295 ± 0.8.

APHTTTLTRKSFDNGCGGFG displayed an amyloid nucleation score of 0.001 ± 0.38.

Regarding APRYHAVFLLII, the amyloid nucleation score was -0.505 ± 0.79.

Take APSYRATWRAVNCAILGPLY: the amyloid nucleation score was -0.567 ± 0.61.

With AQDLPLVTRNCKCMRRHLWV, the amyloid nucleation score is -0.171 ± 0.42.

AQFFVLSSLW yielded an amyloid nucleation score of -0.085 ± 0.93.

In turn, AQGVNSFCIEVFHCEGVMDP had an amyloid nucleation score of -0.003 ± 0.38.

AQSPQVNSLWCGMNFTTFPG returned an amyloid nucleation score of 1.92 ± 0.2.

As to AQTPRLLKVG, the amyloid nucleation score was -1.01 ± 1.8.

A further data set can be described thus: amyloid nucleation score (Sup35N fusion, yeast selection) (log enrichment); library NNK2; higher = more nucleation; inactive = no reads after selection. Put shortly:
as §1
In the case of YTVFSTESPCWISQSKLRLA, the amyloid nucleation score was -0.825 ± 0.78.

Substance YTVPSQNKWVENLMNWRGYR returned an amyloid nucleation score of -0.663 ± 0.23.

The substance YVCLRRWNWRMKLTCVSKLG registered an amyloid nucleation score of 0.734 ± 0.35.

Substance YVCPIHLSDYEVTLECKSHG registered an amyloid nucleation score of 2.17 ± 0.18.

With YVCRSGWDLVAKFGILRREE, the amyloid nucleation score was found to be 2.17 ± 0.2.

YVEVLSKVAWASDCSRIEYA yielded an amyloid nucleation score of -0.342 ± 1.1.

On to YVFLGD, for which the amyloid nucleation score came to 2.35 ± 0.11.

Regarding YVFLWWLKFCFGYH, the amyloid nucleation score result was “inactive”.

Substance YVFYLVR gave an amyloid nucleation score of 1.03 ± 0.24.

As for YVLFLVRWRVNRV, the amyloid nucleation score was determined as 2.19 ± 0.11.

Turning to YVLQYTVKSDVWGTKAIRRP, the amyloid nucleation score was 0.007 ± 0.79.

Regarding YVLSSLRICYTMLSM, the amyloid nucleation score result is “inactive”.

For YVMNQPDKVWSHIESGNKRH, the amyloid nucleation score is -1.34 ± 0.62.

Turning to YVPDGAQARLDASIFIVCSR, the amyloid nucleation score was found to be 5.23 ± 0.055.

Substance YVQTSKCGS had an amyloid nucleation score of 7.1 ± 0.055.

YVRRVASGAFCMKFRSTIRR: the amyloid nucleation score turned out to be 1.98 ± 0.084.

As for YVSGGVKAFSFLSVCYLSPW, the amyloid nucleation score is 7.586 ± 0.066.

Regarding YVVEHQLMYAVWLFALGGSN, the amyloid nucleation score was determined as 0.655 ± 0.24.

On to YVYDISGRITVNPITYKCQL, for which the amyloid nucleation score is -1.16 ± 0.64.

Consider YVYERIDSERRTRPCKKKMY, for which the amyloid nucleation score result was “inactive”.

For the substance YWFPEASMFLIPL, the amyloid nucleation score was -1.49 ± 1.1.

With YWLECILSGVYHDGYDSYSL, the amyloid nucleation score entry is “inactive”.

As for YWNQNCELTVFSN, the amyloid nucleation score entry is “inactive”.

The substance YYEVCPI gave an amyloid nucleation score of -0.076 ± 0.44.

With YYFIG, the amyloid nucleation score is 0.673 ± 0.24.

Substance YYFKFNSS registered an amyloid nucleation score of 3.65 ± 0.12.

For the substance YYHYYFGFCDNM, the amyloid nucleation score turned out to be 0.664 ± 0.33.

Take YYNSCKVN: the amyloid nucleation score is -1.35 ± 1.1.

Substance YYRYRHLMHLIKWME showed an amyloid nucleation score of 0.216 ± 0.53.

With YYSVMWYLMERAIN, the amyloid nucleation score is -0.975 ± 0.35.

YYSYYWQTNHID: the amyloid nucleation score is -1.68 ± 0.62.

Substance YYTQRAAFIWKVICKVDVYV gave an amyloid nucleation score of 2.46 ± 0.18.

In turn, YYVFYMVVVCNVITIRQNHM had an amyloid nucleation score of 1.49 ± 0.28.

As for YYVWVI, the amyloid nucleation score was -0.698 ± 0.78.

YYWASRLVMPCSNRWRLYLQ registered an amyloid nucleation score of -0.474 ± 1.
